Key:
U2AF65 [1] = target: T1, U2AF65 (UniProt P26368 P26368:2-475); assay: EMSA; native PAGE; conditions: label: radiolabel
U2AF65 [2] = target: T1, U2AF65; assay: EMSA; conditions: label: radiolabel

T1 sequence (P26368 2-475, one chain of several): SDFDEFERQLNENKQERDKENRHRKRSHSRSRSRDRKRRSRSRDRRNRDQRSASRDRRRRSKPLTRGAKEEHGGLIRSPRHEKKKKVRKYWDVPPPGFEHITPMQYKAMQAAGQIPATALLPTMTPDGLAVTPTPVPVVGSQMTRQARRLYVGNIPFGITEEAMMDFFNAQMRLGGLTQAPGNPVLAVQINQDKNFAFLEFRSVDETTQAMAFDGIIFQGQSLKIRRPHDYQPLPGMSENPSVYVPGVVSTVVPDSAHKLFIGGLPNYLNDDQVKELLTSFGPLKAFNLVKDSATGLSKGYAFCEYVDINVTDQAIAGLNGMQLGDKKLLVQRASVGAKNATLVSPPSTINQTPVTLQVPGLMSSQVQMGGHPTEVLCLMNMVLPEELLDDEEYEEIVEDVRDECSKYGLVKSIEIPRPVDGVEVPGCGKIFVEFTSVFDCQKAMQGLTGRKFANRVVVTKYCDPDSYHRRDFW

Binder | binding result (U2AF65 [1]) | binding result (U2AF65 [2])
CACGCCUGUGAAACCGUACUAAGUCUCCCGUGUCUUCUUAUCACCAUCAG (ssRNA) [wt PyA+PyB RNA probe (HCMV MIE intron 4)] | binds | –
CACGCCUGUGAAACCGUACUAAGUCAGCCGUGUCAAGUUAUCACCAUCAG (ssRNA) [dPyAB probe] | – | no binding
CACGCCUGUGAAACCGUACUAAGUCUCCCGUGUCAAGUUAUCACCAUCAG (ssRNA) [dPyB probe] | – | no binding

Reference: patent US20240263180, “SMALL COMPLEMENTARY NUCLEIC ACIDS, COMPOSITIONS CONTAINING THE SAME, AND METHODS FOR USE AS ANTIVIRALS” (HOWARD UNIVERSITY, published 2024)
